Legend:
[1] = biological target: rabbit skeletal actin filaments (rabbit) (UniProt P68135)
[2] = biological target: smooth muscle actin filaments (UniProt P62736)
[3] = biological target: PfActin-1 filaments (Plasmodium falciparum) (UniProt Q8I4X0)

Full-length phosphorylated smooth muscle myosin, sequence (P10587 whole entry, looked up): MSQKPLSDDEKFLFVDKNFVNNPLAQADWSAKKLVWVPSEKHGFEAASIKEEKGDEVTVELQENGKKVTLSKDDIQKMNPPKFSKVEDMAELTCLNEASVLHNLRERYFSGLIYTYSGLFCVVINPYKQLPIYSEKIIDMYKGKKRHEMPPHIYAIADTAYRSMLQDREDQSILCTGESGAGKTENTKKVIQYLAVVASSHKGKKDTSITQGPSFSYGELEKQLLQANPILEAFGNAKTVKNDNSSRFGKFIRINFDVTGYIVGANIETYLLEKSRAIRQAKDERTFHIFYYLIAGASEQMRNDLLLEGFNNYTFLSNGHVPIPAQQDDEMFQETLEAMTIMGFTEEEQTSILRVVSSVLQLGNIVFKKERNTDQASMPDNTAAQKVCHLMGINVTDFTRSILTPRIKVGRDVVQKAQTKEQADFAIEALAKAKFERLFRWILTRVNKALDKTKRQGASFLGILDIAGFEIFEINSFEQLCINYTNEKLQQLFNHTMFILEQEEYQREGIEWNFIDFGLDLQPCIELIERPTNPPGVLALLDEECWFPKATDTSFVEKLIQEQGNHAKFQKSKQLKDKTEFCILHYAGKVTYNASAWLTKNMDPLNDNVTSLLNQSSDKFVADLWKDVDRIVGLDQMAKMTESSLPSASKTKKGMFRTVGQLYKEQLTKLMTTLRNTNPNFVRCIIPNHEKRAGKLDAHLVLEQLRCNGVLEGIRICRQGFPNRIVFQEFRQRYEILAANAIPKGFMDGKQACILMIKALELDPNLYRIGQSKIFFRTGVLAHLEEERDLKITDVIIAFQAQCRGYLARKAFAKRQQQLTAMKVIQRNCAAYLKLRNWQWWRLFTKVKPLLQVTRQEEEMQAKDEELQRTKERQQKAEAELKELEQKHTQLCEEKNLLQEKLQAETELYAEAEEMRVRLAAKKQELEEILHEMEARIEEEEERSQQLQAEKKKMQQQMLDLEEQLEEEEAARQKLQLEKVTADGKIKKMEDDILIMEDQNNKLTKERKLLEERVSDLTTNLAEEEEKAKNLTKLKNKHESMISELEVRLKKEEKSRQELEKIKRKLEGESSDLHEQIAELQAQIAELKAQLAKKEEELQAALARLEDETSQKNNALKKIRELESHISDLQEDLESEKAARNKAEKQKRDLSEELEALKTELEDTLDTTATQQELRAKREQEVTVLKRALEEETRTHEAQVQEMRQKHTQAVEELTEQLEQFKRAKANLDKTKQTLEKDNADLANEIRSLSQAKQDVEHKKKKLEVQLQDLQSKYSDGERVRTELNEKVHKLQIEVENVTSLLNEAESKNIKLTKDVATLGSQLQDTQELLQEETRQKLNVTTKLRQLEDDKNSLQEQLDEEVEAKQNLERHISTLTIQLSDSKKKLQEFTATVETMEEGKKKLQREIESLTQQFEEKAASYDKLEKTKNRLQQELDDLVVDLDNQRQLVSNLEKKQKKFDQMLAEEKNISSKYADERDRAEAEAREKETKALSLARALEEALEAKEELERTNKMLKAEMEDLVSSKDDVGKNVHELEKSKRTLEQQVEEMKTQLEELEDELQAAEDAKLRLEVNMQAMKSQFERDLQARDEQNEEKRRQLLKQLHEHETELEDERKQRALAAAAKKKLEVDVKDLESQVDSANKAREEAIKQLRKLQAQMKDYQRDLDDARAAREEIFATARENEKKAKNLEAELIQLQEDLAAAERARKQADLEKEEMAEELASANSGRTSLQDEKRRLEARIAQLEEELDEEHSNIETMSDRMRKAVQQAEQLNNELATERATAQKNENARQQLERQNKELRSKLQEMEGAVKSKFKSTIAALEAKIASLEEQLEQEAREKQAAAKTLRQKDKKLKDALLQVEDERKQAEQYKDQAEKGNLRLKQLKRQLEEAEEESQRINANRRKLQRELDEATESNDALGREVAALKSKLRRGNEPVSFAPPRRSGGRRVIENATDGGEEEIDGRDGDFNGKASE

Row | Substance | in vitro motility speed, skeletal muscle actin filaments moved by myosin held on the coverslip, 30 °C [1] [µm/s] | in vitro motility speed, smooth muscle actin filaments moved by myosin held on the coverslip, 30 °C [2] [µm/s] | in vitro motility speed, JAS-stabilized PfAct1 filaments moved by myosin held on the coverslip, 30 °C [3] [µm/s] | in vitro motility speed, unstabilized PfAct1 filaments (no JAS) moved by myosin held on the coverslip, 30 °C [3] [µm/s] | in vitro motility speed, skeletal muscle actin filaments moved by myosin adhered to the coverslip, 30 °C [1] [µm/s] | in vitro motility speed, smooth muscle actin filaments moved by myosin adhered to the coverslip, 30 °C [2] [µm/s] | in vitro motility speed, JAS-stabilized PfAct1 filaments moved by myosin adhered to the coverslip, 30 °C [3] [µm/s]
1 | PfMyoA with a C-terminal biotin tag (from UniProt Q8IDR3 1-818) (complex) | 3.85 | 4.21 | 3.55 | 3.98 | – | – | –
2 | Full-length phosphorylated smooth muscle myosin (from UniProt P10587 1-1979) (complex) | – | – | – | – | 0.62 | 0.51 | 0.53

— publication PMC7994445
